These results are taken from patent US20250090680A1.

The target in experiment [1] is recombinant hGPC3-His (human) (UniProt P51654). The experiment is described as follows: Biacore SPR, antibody captured, hGPC3-His analyte, 1:1 model.
For experiment [2], the target named is recombinant human GPC3 protein (R&D Systems) (human) (UniProt P51654). As to the kind of experiment: binding ELISA on plate-coated recombinant hGPC3, detection with goat anti-human Fc secondary antibody and TMB.
Experiment [3] has the same target. As to the kind of experiment: Octet (BLI) off-rate ranking of scFv.
Experiment [4] has the same target. The experiment is described as follows: ELISA, plate-coated recombinant hGPC3, IgG detected with anti-human Fc.
Experiment [5] has as its target recombinant hGPC3-His (human) (UniProt P51654). As to the kind of experiment: Biacore SPR, antibody captured, hGPC3-His analyte, 1:1 model; reference ARD-103 IgG.

UniProt P51654, sequence (P51654 25-559): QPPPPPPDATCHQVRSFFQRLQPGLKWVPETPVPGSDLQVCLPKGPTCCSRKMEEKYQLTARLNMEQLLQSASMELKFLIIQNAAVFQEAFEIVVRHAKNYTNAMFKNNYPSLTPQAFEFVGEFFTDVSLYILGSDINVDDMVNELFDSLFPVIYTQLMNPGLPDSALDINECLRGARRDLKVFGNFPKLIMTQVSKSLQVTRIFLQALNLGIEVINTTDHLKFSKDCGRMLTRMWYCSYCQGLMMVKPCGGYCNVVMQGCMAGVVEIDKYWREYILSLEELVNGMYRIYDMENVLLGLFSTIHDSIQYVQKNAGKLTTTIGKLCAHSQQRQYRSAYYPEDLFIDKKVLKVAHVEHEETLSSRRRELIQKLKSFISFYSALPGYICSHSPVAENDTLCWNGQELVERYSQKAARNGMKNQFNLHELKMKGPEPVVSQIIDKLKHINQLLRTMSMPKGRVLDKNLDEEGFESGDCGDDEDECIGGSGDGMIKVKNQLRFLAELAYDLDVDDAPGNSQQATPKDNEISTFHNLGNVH

B1: ARD-103 antibody (IgG) (antibody, V domains shown)
VH: QVQLVESGAEVKKPGASVKVSCKASGYTFTDYEMHWVRQAPGQGLEWMGALDPKTGDTAYSQKFKGRVTLTADKSTSTAYMELSSLTSEDTAVYYCTRFYSYTYWGQGTLVTVSS
VL: DVVMTQSPLSLPVTPGEPASISCRSSQSLVHSNGNTYLHWYLQKPGQSPQLLIYKVSNRFSGVPDRFSGSGSGTDFTLKISRVEAEDVGVYYCSQNTHVPPTFGQGTKLEIKR
As for B1, in experiment [1], the dissociation constant (Kd) turned out to be 3.85 nM, the koff amounted to 0.000185 s⁻¹ and the kon was found to be 48100 M⁻¹ s⁻¹. The concentration for a half-maximal effect (EC50) in experiment [2] came out at 0.11 nM.

B2: P1-D6 scFv clone (scFv, part only; not given: linker, domain order, tags, V domains shown, not shown: another chain or arm of the molecule; large carriers; small tags and cut ends)
VH: QVQLVQSGAEVKNPGASVKVSCKASGYTFTDYEMHWVRQAPGQGLEWMGALDPFTGDTAYSQKFKGRVTLTADKSTSTAYMELSSLTSEDTAVYYCTRFYSYTYWGQGTLVTVSS
VL: DVVMTQSPLSLPVTPGEPASISCRSSQSLVHSNGNTYLHWYLQKPGQSPQLLIYKVSNRFSGVPDRFSGSGSGTDFTLKISRVEAEDVGVYYCLQNGYVPPTFGQGTKLEIK
Turning to B2, the koff in experiment [3] amounted to 0.000193 s⁻¹.

B3: P3-F7 IgG variant of ARD-103 (antibody, V domains shown)
VH: QVQLVESGAEVKKPGASVKVSCKASGYTFTDYEMHWVRQAPGQGLEWMGALDPKTGDTAYSQKFKGRVTLTADKSTSTAYMELSSLTSEDTAVYYCTRFYSYTYWGQGTLVTVSS
VL: DVVMTQSPLSLPVTPGEPASISCRSSQSLVHSNGNTYLQWYLQKPGQSPQLLIYKVSNRFSGVPDRFSGSGSGTDFTLKISRVEAEDVGVYYCVQVTHVPPTFGQGTKLEIKR
In the case of B3, in experiment [1], the Kd stood at 8.46 nM, the koff was determined as 0.000724 s⁻¹ and the kon was found to be 85600 M⁻¹ s⁻¹. For the same molecule, the EC50 in experiment [2] worked out at 0.1 nM. For the same molecule, the 50% effective concentration (EC50) in experiment [4] was 0.1 nM.

B4: P6-D11 scFv clone (scFv, part only; not given: linker, domain order, tags, V domains shown, not shown: another chain or arm of the molecule; large carriers; small tags and cut ends)
VH: QVQLVQSGAEVKKPGASVKVSCKASGYTFTDYEMHWVRQAPGQGLEWMGALDPKTGDEAYSQKFKGRVTLTADKSTSTAYMELSSLTSEDTAVYYCTRFYSYTYWGQGTLVTVSS
VL: DVVMTQSPLSLPVTPGEPASISCRSEQSLVHSNGNTYLHWYLQKPGQSPQLLIYKVSNRFSGVPDRFSGSGSGTDFTLKISRVEAEDVGVYYCVQNGLFPPTFGQGTKLEIK
Consider B4, for which the koff in experiment [3] amounted to 0.000122 s⁻¹.

B5: P1-A1 scFv clone (scFv, part only; not given: linker, domain order, tags, V domains shown, not shown: another chain or arm of the molecule; large carriers; small tags and cut ends)
VH: QVQLVESGAEVKKPGASVKVSCKASGYTFTDYEMHWVRQAPGQGLEWMGALDPKTGDTAYSQKFQGRVTLTADKSTSTAYMELSSLTSEDTAVYYCTRFYSYTYWGQGTLVTVSS
VL: DVVMTQSPLSLPVTPGEPASISCRSSQSLVRSNGNTYLHWYLQKPGQSPQLLIYKVSNRFSGVPDRFSGSGSGTDFTLKISRVEAEDVGVYYCVQNTHVPPTFGQGTKLEIK
B5: the koff in experiment [3] worked out at 0.0003 s⁻¹.

B6: P1-G5 IgG variant of ARD-103 (antibody, V domains shown)
VH: QVQLVESGAEVKKPGASVKVSCKASGYTFTDYEMHWVRQAPGQGLEWMGAIDPKTGDTAYSQKFKGRVTLTADKSTSTAYMELSSLTSEDTAVYYCTRFYSYTYWGQGTLVTVSS
VL: DVVMTQSPLSLPVTPGEPASISCRSSQSLVHSNGNTYLQWYLQKPGQSPQLLIYKVSNRFSGVPDRFSGSGSGTDFTLKISRVEAEDVGVYYCSQVTHVPPTFGQGTKLEIKR
Regarding B6, in experiment [1], the equilibrium dissociation constant (Kd) was found to be 4.15 nM, the koff was found to be 0.000326 s⁻¹ and the on-rate constant (kon) turned out to be 78500 M⁻¹ s⁻¹. Besides, in experiment [2], the EC50 was 0.095 nM. Moreover, the EC50 in experiment [4] worked out at 0.1 nM.

B7: P1-D6 IgG variant of ARD-103 (antibody, V domains shown)
VH: QVQLVQSGAEVKNPGASVKVSCKASGYTFTDYEMHWVRQAPGQGLEWMGALDPFTGDTAYSQKFKGRVTLTADKSTSTAYMELSSLTSEDTAVYYCTRFYSYTYWGQGTLVTVSS
VL: DVVMTQSPLSLPVTPGEPASISCRSSQSLVHSNGNTYLHWYLQKPGQSPQLLIYKVSNRFSGVPDRFSGSGSGTDFTLKISRVEAEDVGVYYCLQNGYVPPTFGQGTKLEIKR
As for B7, in experiment [1], the dissociation constant Kd was 3.62 nM, the koff was determined as 0.00033 s⁻¹ and the kon turned out to be 91300 M⁻¹ s⁻¹. Besides, the EC50 in experiment [2] was found to be 0.11 nM. Moreover, the EC50 in experiment [4] is 0.1 nM.

B8: P3-A1 scFv clone (scFv, part only; not given: linker, domain order, tags, V domains shown, not shown: another chain or arm of the molecule; large carriers; small tags and cut ends)
VH: QVQLVESGAEVKKPGASVKVSCKASGYTFTDYEMHWVRQAPGQGLEWMGALDPSTGDTAYSQKFKGRVTLTADKSTSTAYMELSSLTSEDTAVYYCTRFYSYTYWGQGTLVTVSS
VL: DVVMTQSPLSLPVTPGEPASISCRSSQSLVHWNGNTYLHWYLQKPGQSPQLLIYKVSNRFSGVPDRFSGSGSGTDFTLKISRVEAEDVGVYYCAQNTHVPPTFGQGTKLEIK
For B8, in experiment [3], the koff stood at 0.000304 s⁻¹.

B9: P3-A1 IgG variant of ARD-103 (antibody, V domains shown)
VH: QVQLVESGAEVKKPGASVKVSCKASGYTFTDYEMHWVRQAPGQGLEWMGALDPSTGDTAYSQKFKGRVTLTADKSTSTAYMELSSLTSEDTAVYYCTRFYSYTYWGQGTLVTVSS
VL: DVVMTQSPLSLPVTPGEPASISCRSSQSLVHWNGNTYLHWYLQKPGQSPQLLIYKVSNRFSGVPDRFSGSGSGTDFTLKISRVEAEDVGVYYCAQNTHVPPTFGQGTKLEIKR
On to B9, for which, in experiment [1], the Kd turned out to be 2.38 nM, the koff was 0.000196 s⁻¹ and the kon came to 82300 M⁻¹ s⁻¹.

B10: P1-E6 scFv clone (scFv, part only; not given: linker, domain order, tags, V domains shown, not shown: another chain or arm of the molecule; large carriers; small tags and cut ends)
VH: QVQLVESGAEVKKPGASVKVSCKASGYTFTDYEMHWVRQAPGQGLEWMGALDPKTGDTALSQKFKGRVTLTADKSTSTAYMELSSLTSEDTAVYYCTRFYSYTYWGQGTLVTVSS
VL: DVVMTQSPLSLPVTPGEPASISCRSSSSLVHSNGNTYLHWYLQKPGQSPQLLIYKVSNRFSGVPDRFSGSGSGTDFTLKISRVEAEDVGVYYCLQNGIVPPTFGQGTKLEIK
In the case of B10, in experiment [3], the koff was determined as 0.00048 s⁻¹.

B11: P1-B9 IgG variant of ARD-103 (antibody, V domains shown)
VH: QVQLVESGAEVKKPGASVKVSCKASGYTFTDYEMHWVRQAPGQGLEWMGALDPKTGDTALSQKFKGRVTLTADKSTSTAYMELSSLTSEDTAVYYCTRFYSYTYWGQGTLVTVSS
VL: DVVMTQSPLSLPVTPGEPASISCRSSQSLVHSNGNTYLQWYLQKPGQSPQLLIYKVSNRFSGVPDRFSGSGSGTDFTLKISRVEAEDVGVYYCGQVTHVPPTFGQGTKLEIKR
Regarding B11, in experiment [1], the Kd was found to be 3.33 nM, the koff is 0.00026 s⁻¹ and the kon came out at 78000 M⁻¹ s⁻¹. In addition, the EC50 in experiment [2] came to 0.095 nM. The EC50 in experiment [4] amounted to 0.1 nM.

B12: P1-E6 IgG variant of ARD-103 (antibody, V domains shown)
VH: QVQLVESGAEVKKPGASVKVSCKASGYTFTDYEMHWVRQAPGQGLEWMGALDPKTGDTALSQKFKGRVTLTADKSTSTAYMELSSLTSEDTAVYYCTRFYSYTYWGQGTLVTVSS
VL: DVVMTQSPLSLPVTPGEPASISCRSSSSLVHSNGNTYLHWYLQKPGQSPQLLIYKVSNRFSGVPDRFSGSGSGTDFTLKISRVEAEDVGVYYCLQNGIVPPTFGQGTKLEIKR
On to B12, for which, in experiment [1], the Kd stood at 3.95 nM, the koff was 0.000299 s⁻¹ and the kon was determined as 75600 M⁻¹ s⁻¹.

B13: P1-A1 IgG variant of ARD-103 (antibody, V domains shown)
VH: QVQLVESGAEVKKPGASVKVSCKASGYTFTDYEMHWVRQAPGQGLEWMGALDPKTGDTAYSQKFQGRVTLTADKSTSTAYMELSSLTSEDTAVYYCTRFYSYTYWGQGTLVTVSS
VL: DVVMTQSPLSLPVTPGEPASISCRSSQSLVRSNGNTYLHWYLQKPGQSPQLLIYKVSNRFSGVPDRFSGSGSGTDFTLKISRVEAEDVGVYYCVQNTHVPPTFGQGTKLEIKR
In the case of B13, in experiment [1], the Kd came to 1.56 nM, the koff was 0.000172 s⁻¹ and the kon turned out to be 110000 M⁻¹ s⁻¹.

B14: P6-D11 IgG variant of ARD-103 (antibody, V domains shown)
VH: QVQLVQSGAEVKKPGASVKVSCKASGYTFTDYEMHWVRQAPGQGLEWMGALDPKTGDEAYSQKFKGRVTLTADKSTSTAYMELSSLTSEDTAVYYCTRFYSYTYWGQGTLVTVSS
VL: DVVMTQSPLSLPVTPGEPASISCRSEQSLVHSNGNTYLHWYLQKPGQSPQLLIYKVSNRFSGVPDRFSGSGSGTDFTLKISRVEAEDVGVYYCVQNGLFPPTFGQGTKLEIKR
For the molecule B14, in experiment [1], the Kd was found to be 3.02 nM, the fold of ka against ARD-103 is 2 fold, the koff was found to be 0.000324 s⁻¹ and the kon was determined as 107000 M⁻¹ s⁻¹. The half-maximal effective concentration (EC50) in experiment [2] was 0.094 nM. Moreover, the fold change of ka against ARD-103 in experiment [5] turned out to be 2 fold. Moreover, the EC50 in experiment [4] was determined as 0.1 nM.

B15: P1-G5 scFv clone (scFv, part only; not given: linker, domain order, tags, V domains shown, not shown: another chain or arm of the molecule; large carriers; small tags and cut ends)
VH: QVQLVESGAEVKKPGASVKVSCKASGYTFTDYEMHWVRQAPGQGLEWMGAIDPKTGDTAYSQKFKGRVTLTADKSTSTAYMELSSLTSEDTAVYYCTRFYSYTYWGQGTLVTVSS
VL: DVVMTQSPLSLPVTPGEPASISCRSSQSLVHSNGNTYLQWYLQKPGQSPQLLIYKVSNRFSGVPDRFSGSGSGTDFTLKISRVEAEDVGVYYCSQVTHVPPTFGQGTKLEIK
As for B15, the koff in experiment [3] was 0.000197 s⁻¹.

B16: P3-F7 scFv clone (scFv, part only; not given: linker, domain order, tags, V domains shown, not shown: another chain or arm of the molecule; small tags and cut ends)
VH: QVQLVESGAEVKKPGASVKVSCKASGYTFTDYEMHWVRQAPGQGLEWMGALDPKTGDTAYSQKFKGRVTLTADKSTSTAYMELSSLTSEDTAVYYCTRFYSYTYWGQGTLVTVSS
VL: DVVMTQSPLSLPVTPGEPASISCRSSQSLVHSNGNTYLQWYLQKPGQSPQLLIYKVSNRFSGVPDRFSGSGSGTDFTLKISRVEAEDVGVYYCVQVTHVPPTFGQGTKLEIK
B16: in experiment [3], the koff was 0.000319 s⁻¹.

B17: P1-B9 scFv clone (scFv, part only; not given: linker, domain order, tags, V domains shown, not shown: another chain or arm of the molecule; large carriers; small tags and cut ends)
VH: QVQLVESGAEVKKPGASVKVSCKASGYTFTDYEMHWVRQAPGQGLEWMGALDPKTGDTALSQKFKGRVTLTADKSTSTAYMELSSLTSEDTAVYYCTRFYSYTYWGQGTLVTVSS
VL: DVVMTQSPLSLPVTPGEPASISCRSSQSLVHSNGNTYLQWYLQKPGQSPQLLIYKVSNRFSGVPDRFSGSGSGTDFTLKISRVEAEDVGVYYCGQVTHVPPTFGQGTKLEIK
With B17, the dissociation rate constant (koff) in experiment [3] stood at 0.00027 s⁻¹.
